# B1: Aichivirus Goiania (nucleic acid, listed as Aichivirus sp.)
# DNA: ACTCCATTCAGCTTCTTCGGAACCTGTTCGGAGGAATTAAACGGGCACCCATACACCCCCATCCCCTTTTTTGCAACTTAAGTATGTGTGCTCGTAATCTTGACTCCCACGGAATGGATCGATCCGCTGGAGAACAAACTGCTAGATCCACATCCTCCCTCCCCCCTGGGAGGACCTCGGTCCTCCCACATCCTCCCCCCAGCCTGACGTATCACAGGCTGTGTGAAGCCCCCGCGAAAGCTGCTCACGTGGCAATTGTGGGTCCCCCCTTCATCAAGACACCAGGTCTTTCCTCCTTAAGGCTAGTCCCGATGTGTGAATTCACATCGGGCAACTAGTGGTGTCACTGTGCGCTCCCAATCTCGGCCGCGGAGTGCTGTTCCCCAAGCCAAACCCCTGGCCCTTCACTATGTGCCTGGCAAGCATATCTGAGAAGGCGTTCCGCTGTGGCTGCCAGCCTGGTAACAGGTGCCCCAGTGTGCGTAACCTTCTTCCGTCCCCGGACGGTAGTGATTGGTTAAGACTTGGCGTAAGGTTCATGTGCCAACGCCCTGTGCGGGATGAAACCTCTACTGCCCTAGGAATGCCAGGCAGGTACCCCACCTTCGGGTGGGATCTGAGCCTGGGCTAATTGTCTACGGGTAGTTTCATTTCTAATTCTTTCATGTCGGAGTC
# B2: Aichivirus ETHP4 (nucleic acid, listed as Aichivirus sp.)
# DNA: TTACTCCATTCAGCTTCTTCGGAACCTGTTCGGAGGAATTAAACGGGCACCCATACACCCCCACCCCCTTTTTGCAACTTAAGTATGTGTGCTCGTGATCTTGACTCCCACGGAATGGATCGATCCGCTGGAGAACAAACTGCTAGATCCACATCCTCCCTTCCCTTGGGAGGACCTCGGTCCTCCCACATCCTCCCCCCAGCCTGACGTACCACAGGCTGTGTGAAGCCCCCGCGAAAGCCGCTCACGTGGCAATTGTGGGTCCCCCCTTCATTAAGACACCAGGTCTTTCCTCCTTAAGGCTAGTCCCGATGTGTGAATTCACATTGGGCAACTAGTGGTGTCACTGTGCGCTCCCAATCTCGGCCGCGGAGTGCTGTTCCCCAAGCCAAACCCCTGGCCCTTCACTATGTGCCTGGCAAGCATATCTGAGAAGGTGTTCCGCTGTGGCTGCCAGCCTGGTAACAGGTGCCCCAGTGTGCGTAACCTTCTTCCGTCTTCGGACGGTAGTGATTGGTTAAGATTTGGCGTAAGGTTCATGTGCCAACGCCCTGTGCGGGATGAAACCTCTACTACCCTAGGAATGCCAGGCAGGTACCCCACCCTCGGGTGGGATCTGAGCCTGGGCTAATTGTCTACGGGTAGTTTCATTTCCAATTCTTCTATGTCGGAGTC
# B3: Aichivirus DVI2169 (nucleic acid, listed as Aichivirus sp.)
# DNA: TACTCCATTCAGCTTCTTCGGAACCTGTTCGGAGGAATTAAACGGGCACCCATACACCCCCACCCCCTTTTCTGCAACTTAAGTATGTGTGCTCGTAATCTTGACTCCCACGGAATGGATCGATCCGCTGGAGAACAAACTGCTAGATCCACATCCTCCCTTCCCCTGGGAGGACCCCGGTCCTCCCACATCCTCCCCCCAGCCTGACGTATCACAGGCTGTGTGAAGTCCCCGCGAAAGCTGCTCACGTGGCAATTGTGGGTCCCCCCTTCATCAAGACACCAGGTCTTTCCTCCTTAAGGCTAGCCCCGATGTGTGAATTCACATTGGGCAACTAGTGGTGTCACTGTGCGCTCCCAATCTCGGCCGCGGAGTGCTGTTCCCCAAGCCAAACCCCTGGCCCTTCACTATGTGCCTGGCAAGCATATCTGAGAAGGTGTTCCGCTGTGGCTGCCAGCCTGGTAACAGGTGCCCCAGTGTGCGTAACCTTCTTCCGTCTCCGGACGGTAGTGATTGGTTAAGATTTGGTGTAAGGTTCATGTGCCAACGCCCTGTGCGGGATGAAACCTCTACTGCCCTAGGAATGCCAGGCAGGTACCCCACCTTCGGGTGGGATCTGAGCCTGGGCTAATTGTCTACGGGTAGTTTCATTTCCAATTCTTTTATGTCGGAGTC
# B4: Aichivirus DVI2321 (nucleic acid, listed as Aichivirus sp.)
# DNA: GCTTCTTCGGAACCTGTTCGGAGGAATTAAACGGGCACCCATACACCCCCACCCCCTTTTCTGCAACTTAAGTATGTGTGCTCGTAATCTTGACTCCCACGGAATGGATCGATCCGCTGGAGAACAAACTGCTAGATCCACATCCTCCCTTCCCCTGGGAGGACCCCGGTCCTCCCACATCCTCCCCCCAGCCTGACGTATCACAGGCTGTGTGAAGTCCCCGCGAAAGCTGCTCACGTGGCAATTGTGGGTCCCCCCTTCATCAAGACACCAGGTCTTTCCTCCTTAAGGCTAGCCCCGATGTGTGAATTCACATTGGGCAACTAGTGGTGTCACTGTGCGCTCCCAATCTCGGCCGCGGAGTGCTGTTCCCCAAGCCAAACCCCTGGCCCTTCACTATGTGCCTGGCAAGCATATCTGAGAAGGTGTTCCGCTGTGGCTGCCAGCCTGGTAACAGGTGCCCCAGTGTGCGTAACCTTCTTCCGTCTCCGGACGGTAGTGATTGGTTAAGATTTGGTGTAAGGTTCATGTGCCAACGCCCTGTGCGGGATGAAACCTCTACTGCCCTAGGAATGCCAGGCAGGTACCCCACCTTCGGGTGGGATCTGAGCCTGGGCTAATTGTCTACGGGTAGTTTCATTTCCAATTCTTTTATGTCGGAGTC
# B5: Aichivirus rat08 (nucleic acid, listed as Aichivirus sp.)
# DNA: TACTCCATTCAGCTTCTTCGGAACCTGTTCGGAGGAATTAAACGGGCACCCACTTTCCTGTCCTCTCCCCTTTTCTGTAACTCCAAGTGTGTGCTCGTAATCTTGACTCCCGCGGATTGACCGCTCCGCTGGTGAACAAACTGCTAGGTCATCTCCTCCCCACCCTTGGGCGTCCTTCCGGGCGTCCACACCCTCCCCCCAGCCTGACGTGTCACAGGCTGTACAAAGACCCCGCGAAAGCTGCTAACGTGGCAATTGTGGGTCCCCCCTTTGTAAAGGAACCGAGTCTTTCTCCCTTAAGGCTAGACCCCTGTGTGAATTCACAGGTGGCAACTAGTGGTTCCACTGCATGCTCCCGACCTCGGCCGCGGAGTGCTGTTCCCCAAGTCGTAACACTGACCTTCACTTATGTGCCTGGCAAGCATATCTGAGAAGATGTTCCGCTGTGGCTGCCAAACCTGGTAACAGGTGCCCCAGTGTGCGTAGTCTTCTTCCGTCTTCGGACGGTAGGTGTTAGGTAAAGATGCGGCGTAAGGTTCAAGTGCCAACGCCCTGGAAGGGATGACCCTTCTACTGCCCTAGGAATGCCGCGCAGGTACCCCAGGTTCGCCTGGGATCTGAGCGCGGGCTAATTGTCTACGGGTAGTTTCATTTCCCTCTTCTTCCACTGGCATC
# B6: Symapivirus A (nucleic acid)
# DNA: TTGGGAAATCCCCAATGCTTCTTTCAACACCGCCTGACTATGCGGTGGCGCTTCGGCTCAAACAACTAGTCACTTCCCCCTCTTAACTACTACCCAAGACTTCTAACTACCCTTACCTACTTATTTGTCTAAATTTCAAACTTTTATTCTCACGCGTCTTATAAACATCTTTTCTATTTGTTATGGTATGTTTTGTGATTTGTGTGGTGTATTTCATTTAATGGGATCTAGTGGACCGTGCCCCGGTTGGGTATCCGCTCCCTTTAAATGTTTGCAAGCACTCTTGACATTATAACCTATCATTTAGTTTACTTGTTTGTATGATCGTATTTCTGAATCGTAACATTTATGCAATTCTTTCTCGCCGAGACTTGTCTAGGAGATAAAGTTCCTGCATATTTAGTGTTACGGTTGTATAATGGAGACTTAGATAGCTTCACACTGAGGACGCTTTTTCGCTATCCTTTTGACCTGATTCAGGCCAGTGTGGAGTTAATGATTGTATGGATGGGCCCTACAATTTGTCTAAGACTTGGTGATAGCCTCGCGGCCGCTCGCCATTTATACAACTGAATAGCGGTTGAAACTCTCT
# modifications: Symapivirus A
# B7: Aichivirus Rt386 (nucleic acid, listed as Aichivirus sp.)
# DNA: ACTCCATTCAGCTTCTTCGGAACCTGTTCGGAGGAATTAAACGGGCACCCACTTTCCTGTCCTCTCCCCCTTTCTGCAACTCAAGTGTGTGCTCGTAATCCTGACTCCCACGGGTTGACCGCCCCGTTGGTGAACAAACAGCTAGGTCATTCCCTCCCTACCCCTGGGCGCCATTTCAGTGGCGTTCATATCCTCCCCCCAGCCTGACGTGTCACAGGCTGTGCAAAGTCCCCGCGAAAGCTGCTCACGTGGCAATTGTGGGTCCCCCCTTTGTGAAGGAACCGAGTCTTTCTCCCTTAAGGCTAGACCCCTGTGTGAACTCACAGGTGGCAACTAGTGGTTCCACTGCATGCTCCCGACCTCGGCCGCGGAGTGCTGTTCCCCAAGTCGTGACACTGACCTCCACTTATGTGCCTGGCAAGCATATCTGAGAAGATGTTCCGCTGTGGCTGCCAAACCTGGTAACAGGTGCCCCAGTGCGTGTAGTCTTCTTCCGTCTCCGGACGGTAAGTGTGTGGTAAAGATGCGGCGTAAGGTTCAAGTGCCAACGCCCTGGAAGGGATGACCCTTCTACTGCCCTAGGAATGCCGCGCAGGTACCCCAGGTTCGCCTGGGATCTGAGCGCGGGCTAATTGTCTACGGGTAGTTTCATTTCCCTCTCTTTTCACTGGCATC
# B8: Porcine Kobuvirus GS2 (nucleic acid, listed as Kobuvirus sp.)
# DNA: TTTGAAAAGGGGGTGGGGGGGCCTCGGCCCCCTCACCCTCTTTTCCGGTGGCCATTCGCCCGGGCCACCGTTACTCCACTCCACTCCTTCGGGACTGGTTTGGAGGAACACAACAGGGCTTCCCATCCCTGTTTACCCTTTATTCCATCATCCTTTCCCCAAGTTTACCCTATCCACACCCCACTGACTGACTCCTTTGGATTTTGACCTCAGAATGCCTATTTGACCTCCCACTCGCCTCTCCCTTTTCGGATTGCCGGTGGTGCCTGGCGGAAAAAGCACAAGTGTGTTGCAGGCTACCAAACTCCTACCCGACAAAGGTGCGTGTCCGCGTGCTGAGTAATGGGATAGGAGATGCCTACAACAGGCTCGCCCATGAGTAGAGCATGGACTGCGGTGCATGTGACTTCGGTCACCACGGGCATAGCATTGCTCACCCGTGAATCAAGTCATCGAGATTTCTCTGACCTCTGAAGTGCACTGTGGTTGCGTGGCTGGGAATCCACGCTTGACCATGTACTGCTTGATAGAGTCGCGGCTGGCCGACTCATGGGTTAAAGTCAGTTGACAAGACAC
# Test system: HEK293 cells
# Assay type: cell-based, human
# Conditions: luminescence from secreted Gluc in supernatant 24 hours after transfection of HEK293 cells; circular RNA encoding Gluc with the named IRES (UTR truncated to 675 nt)
molecule,measurement,value
B1,Expression,1.66E+07
B2,Expression,1.78E+07
B3,Expression,2.98E+06
B4,Expression,6.63E+07
B5,Expression,3.51E+07
B6,Expression,1.27E+05
B7,Expression,5.71E+07
B8,Expression,44200000
